In patent US20250312416A1, “METHOD AND PHARMACEUTICAL COMPOSITION FOR CARTILAGE REGENERATION” (FAR EASTERN MEMORIAL HOSPITAL, priority 2024, published 2025):

Tests used:
[1] = system: IPFP-MSC spheroids from OA patients; assay: Fluorescence confocal microscopy of IPFP-MSC spheroids (SOX9, type II collagen, aggrecan); assay type: cell-based, human; conditions: MSC spheroids during chondrogenesis, 7 days
Method: (§1) The GSE140861 microarray database was used for analyzing the potential genes from human bone marrow cells at different time points during chondrogenesis. Whole-genome expression analysis was carried out using Illumina (CA) Human Ref-8v3 or Human HT-12 v4 BeadArrays™. It was first selected the secreted protein from this database and further verified the functions of the candidate genes. The numbers of significant differences in gene expressions of different time points from human bone marrow stem cells during chondrogenesis. […] Alcian blue staining analyzed the chondrogenic differentiation of pellets with varying ratios of IPFP-MSC. CXCL14 increased the GAG deposition in IPFP-MSC during chondrogenesis on day 3. FIG. 1C provides the fluorescence confocal microscopy images showing IPFP-MSC spheroids from OA patients treated with CXCL14 for 7 days; wherein the nuclei were stained with DAPI (blue), and merged images display SOX9 (red), type II collagen (green), and aggrecan (light blue) labeling. […] The chondrogenic progenitor cells in the human IPFP-MSC from OA patients were detected using SOX9 and Collagen type II biomarkers. MSCs were assessed by flow cytometry for SOX9 and Collagen type II biomarkers indicative of human MSCs on day 1. In addition, Alcian blue staining analyzed the chondrogenic differentiation of pellets with IPFP-MSC. […]

[2] = system: ADSC spheroids; assay: Immunofluorescence / confocal microscopy of chondrogenic proteins in ADSC spheroids; assay type: cell-based, human; conditions: ADSC spheroids, 7 days
Method: Both side views (observed in the x and z plane) and bottom views (observed in the […]) of the images are provided. The scale bar is set at 500 μm.
ADSCs were treated with CXCL14-P, CXCL14-P1, or CXCL14-P2, respectively, at a concentration of 10 ng for 24 hours, after which the medium was replaced with fresh peptide-free medium. On day 7, total RNA was extracted, and real-time PCR analysis was performed to assess the expression levels of key chondrogenic markers, including ACAN, COL2A1, SOX9, and COMP. Gene expression levels were quantified using a LightCycler system (Roche Applied Science), with fold changes calculated relative to untreated control ADSCs. […] Immunofluorescence staining was performed to detect Collagen Type II, SOX9, COMP, and nuclei (Hoechst 33342) in 3D ADSC spheroids (middle panel).
(FIG. 3). […] Moreover, fluorescence confocal microscopy was employed to detect protein patterns and confirm the levels of SOX9, type II collagen, and aggrecan proteins in ADSC spheroids. […] Finally, to investigate whether the CXCR4 receptor of CXCL12/CXCL14 confers chondrogenic signaling during chondrogenesis, we treated ADSCs with a CXCR4 agonist for 7 days.
Extracellular vesicles (EVs) derived from MSCs hold significant potential for repairing damaged tissues. In this study, we explored whether EVs from ADSCs could effectively enhance chondrogenesis and promote cartilage repair. Immunofluorescence staining was used to assess protein levels of Collagen Type II (green), SOX9 (red), COMP (indigo), and Hoechst 33342 (gray) in 3D ADSC spheroids treated with MSC-EVs derived from CXCL14 peptide-primed ADSCs (CXCL14-P-MSC-EVs) at various time points. […] To further explore the cartilage repair functions of EVs from CXCL14-P-treated ADSCs and the encapsulation of the transcription factor SOX9 within MSCs and purified EVs, we performed in vivo studies.

[3] = system: IPFP-MSC from OA patients; assay: Alcian blue staining of chondrogenic pellets (GAG), IPFP-MSC; assay type: cell-based, human; conditions: IPFP-MSC during chondrogenesis, day 3
Method: as §1

[4] = system: tibial articular cartilage of WT mice after ACLT; assay: ACLT-induced OA mouse model, Safranin O / collagen II staining and OARSI score (CXCL14 protein); assay type: in vivo; conditions: for OARSI score: ACLT group 5.5, sham group 0.17

B1: CXCL14: small cytokine belonging to the CXC chemokine family, also known as BRAK; used as recombinant protein (protein, UniProt O95715 35-111, looked up)
C-X-C motif chemokine 14: SKCKCSRKGPKIRYSDVKKLEMKPKYPHCEEKMVIITTKSVSRYRGQEHCLHPKLQSTKRFIKWYNAWNEKRRVYEE
Q: With B1 as the molecule, how does the “levels of SOX9, type II collagen, and aggrecan” value [1] read?
A: elevated levels

Q: And the “expression of SOX9, type II collagen, and aggrecan” value [2]?
A: notably induced

Q: What about the “GAG deposition (Alcian blue)” value [3] of the same molecule?
A: increased

Q: What about the OARSI score ([4]; CXCL14 10 ng) of the same molecule?
A: 2.7

Q: And the OARSI score ([4]; CXCL14 20 ng)?
A: 1

Q: And the “cartilage repair (staining GAG content and type II collagen)” value ([4]; dose-dependent, ACLT-induced OA)?
A: can stimulate cartilage repair
